Tests used:
[1] = biological target: HLA-A*30:01; test: IEDB peptide-MHC binding, purified MHC/competitive/radioactivity; filed as Kd, often an IC50 or EC50 that approximates it; ≥ and ≤ were set here for values at or beyond the usual limits of such assays
[2] = biological target: HLA-A*23:01; test: as above
[3] = biological target: HLA-B*08:01; test: as above
[4] = biological target: HLA-A*68:02; test: as above
[5] = biological target: HLA-A*02:02; test: as above
[6] = biological target: HLA-A*02:03; test: as above
[7] = biological target: HLA-A*02:06; test: as above
[8] = biological target: HLA-A*01:01; test: as above; details: source organism: SARS coronavirus Tor2
[9] = biological target: HLA-A*24:02; test: as above; details: source organism: SARS coronavirus Tor2
[10] = biological target: HLA-A*26:01; test: as above; details: source organism: SARS coronavirus Tor2
[11] = biological target: HLA-A*29:02; test: as above; details: source organism: SARS coronavirus Tor2
[12] = biological target: HLA-A*30:02; test: as above; details: source organism: SARS coronavirus Tor2
[13] = biological target: HLA-A*02:01; test: IEDB peptide-MHC binding, purified MHC/competitive/fluorescence; ≥ and ≤ were set here for values at or beyond the usual limits of such assays; details: source organism: Hepacivirus hominis
[14] = biological target: HLA-A*02:01; test: IEDB peptide-MHC binding, purified MHC/competitive/fluorescence; filed as Kd, often an IC50 or EC50 that approximates it; ≥ and ≤ were set here for values at or beyond the usual limits of such assays; details: source organism: Hepatitis C virus subtype 1b
[15] = biological target: HLA-B*40:01; test: IEDB peptide-MHC binding, purified MHC/competitive/radioactivity; filed as Kd, often an IC50 or EC50 that approximates it; ≥ and ≤ were set here for values at or beyond the usual limits of such assays; details: source organism: Dengue virus 2 Jamaica/1409/1983
[16] = biological target: HLA-B*51:01; test: as above; details: source organism: Dengue virus 1 Brazil/97-11/1997
[17] = source organism: Vaccinia virus WR
[18] = source organism: Dengue virus 4 Philippines/H241/1956
[19] = source organism: SARS coronavirus Tor2
[20] = source organism: Trypanosoma cruzi

HQHLAIMFK showed a Kd [1, 17] of 4.99 nM.
LCLIPTVMAF gave a Kd ([2]; source organism: Dengue virus 4 Dominica/814669/1981) of 454 nM.
With ELREIFRRL the Kd [3, 17] was 26.5 nM.
For SAKRITESI, the Kd [3, 17] was 119 nM.
Work on TVFFVLMMLV yielded a Kd [4, 18] of 38.7 nM.
Sequence ALEAKIAQL has a Kd ([5]; source organism: Homo sapiens) of 14.8 nM, a Kd ([6]; source organism: Homo sapiens) of 46.7 nM and a Kd ([7]; source organism: Homo sapiens) of 1100 nM. The Kd ([4]; source organism: Homo sapiens) was 7300 nM.
Work on VSIINNAVY yielded a Kd [8] of 883 nM, a Kd [2, 19] of at least 44300 nM and a Kd [9] of at least 58700 nM. The Kd [10] was 15300 nM, the Kd [11] was 1070 nM and the Kd [12] was 9.17 nM.
LLCPAGHAV showed an IC50 [13] of 35400 nM and a Kd [14] of 12.4 nM.
DKRMKSLAM gave a Kd [3, 17] of 9.85 nM.
LDESFLGRY showed a Kd [8] of 2610 nM, a Kd [2, 19] of at least 77800 nM and a Kd [9] of at least 77600 nM. For the same sequence, the Kd [10] was 12700 nM, the Kd [11] was 1540 nM and the Kd [12] was 163 nM.
For IENSSVNVSL, the Kd ([3]; source organism: Dengue virus 2 Jamaica/1409/1983) was 764 nM and the Kd [15] was 1.59 nM.
In the case of LAGPMPVTV, the Kd [16] is reported as 870 nM.
Work on KADRVIDPRR yielded a Kd ([1]; source organism: Dengue virus 3 Martinique/1243/1999) of 5180 nM.
Sequence NVMKRINCF has a Kd [3, 17] of 19.8 nM.
In the case of DRRSFFKCF, the Kd ([3]; source organism: Vaccinia virus Copenhagen) is reported as 75.7 nM.
YLALYNKYKY gave a Kd [8] of 244 nM, a Kd [2, 19] of 11600 nM and a Kd [9] of 18600 nM. It also gave a Kd [10] of 19200 nM, a Kd [11] of 43.2 nM and a Kd [12] of 34.5 nM.
ALRPSTSRSL was tested, and the Kd ([4]; source organism: Homo sapiens) was at least 60000 nM.
For SVYTTMFGGV, the Kd [6, 18] was 8.23 nM, the Kd [7, 18] was 1.96 nM and the Kd [4, 18] was 9.63 nM.
For KLKKLEEEQI, the Kd ([7]; source organism: Homo sapiens) was at least 59100 nM and the Kd ([4]; source organism: Homo sapiens) was at least 60000 nM.
Sequence VNREGKIVGL has a Kd ([3]; source organism: Dengue virus 1 Brazil/97-11/1997) of at least 35600 nM.
Work on FVNHRFTLV yielded a Kd [5, 20] of 81.8 nM, a Kd [6, 20] of 1.38 nM and a Kd [7, 20] of 6.57 nM. For the same sequence, the Kd [4, 20] was 89.3 nM.
AAKGASMTL showed a Kd [1, 17] of 0.998 nM.

— the Immune Epitope Database (IEDB)
